Assay results as given in patent publication US20210283054A1.

Tests used:
[1] = target: NorGly-E(EDANS)…(dabcyl)GSGSG-NH2; assay: cell-based or functional assay
[2] = target: Fluorogenic Homopolymer (DP=20) of NorGly-E(EDANS)…(dabcyl)GSGSG-NH2; assay: cell-based or functional assay
[3] = test system: T1, Thrombin Homopolymer (20 mer)
T1 sequence: GALVPRGSGERDG

[4] = test system: T2, Thrombin Homopolymer (10 mer)
T2 sequence: GALVPRGSGERDG

[5] = test system: T3, thrombin substrate monomer (norbornene-GALVPRGSGERDG-NH2)
T3 sequence: GALVPRGSGERDG

[6] = test system: T4, Thrombin Homopolymer (30 mer)
T4 sequence: GALVPRGSGERDG

Substance: Pronase (Roche, cat. #10165921001)
- Monomer V0 (initial velocity of proteolysis) [1]: 0.2 µM/min
- fold faster initial rate (V0) of the monomer than of the homopolymer [1]: 17 to 95 fold
- Homopolymer V0 (initial velocity of proteolysis) [2]: 0.0021 µM/min

Substance: thrombin (Sigma, cat. #T6884-100UN)
- proteolytic cleavage by RP-HPLC [3]: homopolymers at several degrees of polymerization were resistant to cleavage relative to the monomer, albeit not completely shut off from proteolysis
- proteolytic cleavage by RP-HPLC [4]: homopolymers at several degrees of polymerization were resistant to cleavage relative to the monomer, albeit not completely shut off from proteolysis
- proteolytic cleavage by RP-HPLC [5]: the monomeric peptide was readily degraded by thrombin
- proteolytic cleavage by RP-HPLC [6]: homopolymers at several degrees of polymerization were resistant to cleavage relative to the monomer, albeit not completely shut off from proteolysis
